From the supplement of paper PMC10567573

B1: WSB1 (parent)
chain: DLKDDGNMMKVLRGHQNWVYSCAF
B2: GAGE1 (parent)
chain: RPRRYVQPPEMIGPMRPEQFSDEV

Variants of: B1
Experiment: protein stability index of a GFP-peptide fusion (GPS, HEK-293T) (PSI 1-6); higher = more stable
Conditions: c terminus: a fixed tail appended
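Note: lentivirally expressed fusions sorted by FACS into six bins by GFP to DsRed ratio, PSI derived from sequencing read proportions per bin multiplied by bin number.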

Protein stability index, by site and new letter:
D4: W 2.2 | I 2.67 | P 2.28 | T 1.98 | Q 2.63 | G 1.16 | K 2.29 | N 3.38 | H 1.66 | S 2.42
S21: T 1.07 | R 1.22 | K 1.07 | N 1.46 | A 2.3 | P 2.05 | Y 3.37 | D 2.05
K10: P 2.27 | T 1.5 | S 1.96 | Y 2.78 | M 1.55 | R 2.4 | L 2.53 | C 2.19 | E 1.49
L12: E 2.27 | D 2.01 | W 2.38 | I 1.49 | K 1.85 | R 3.69 | N 1.5 | M 1.24 | F 1.67 | Y 2.74 | G 1.91
D1: V 1.89 | N 2.02 | L 2.52 | Q 1.38 | E 2.24 | K 2.65 | M 2.04 | Y 1.78 | R 1 | G 1.76
N7: D 2.58 | H 1.62 | S 1.9 | E 1.66
D5: H 1.86 | F 3.73 | N 2.04 | P 3.34 | E 1.96 | K 1.69 | G 1.68 | M 3.35 | I 2.12
C22: A 2.25 | Q 2.15 | Y 1.72 | G 1.69 | P 2.01 | T 1.9 | E 2.39 | L 3.06 | F 2.98 | M 2.61 | H 1.33 | K 1.77 | R 2.33
W18: P 1.86 | G 2.21 | H 2.34 | V 1.07 | T 2.08 | C 2.38 | Y 2.09 | M 2.75 | N 2.24 | A 2.49 | D 1.69 | E 2.62
Y20: F 1.66 | G 1.97 | D 1.69 | H 2.06 | S 1.83 | V 3.3 | E 1.6 | C 3.17 | W 2.28 | L 2.57 | K 1.39
L2: K 1.54 | H 1.68 | Y 1.93 | F 1.59 | T 2.08 | R 2.05 | V 1.29 | G 1.91 | M 1.65 | P 1.82
G6: I 2.23 | W 3.64 | C 2.17 | L 1.13 | P 2.28 | D 1.94 | A 2.03 | S 1.92
N17: R 2.05 | Q 2.95 | G 1.78 | E 1.68 | S 1.81 | H 1.26 | D 1.94 | A 2.33
V11: A 1.75 | G 1.65 | E 2.01 | I 1.59 | D 1.93 | P 2.31 | W 2 | Y 2.26 | N 1.57
K3: Y 1.84 | Q 1.37 | E 1.9 | L 1.83 | R 1.48 | G 2.54 | W 2.49 | T 2.65 | D 2.57 | N 1.43 | A 2.75
Q16: V 1.52 | T 2.79 | H 2.75 | D 1.71 | F 2.8 | N 1.79
G14: C 2.43 | S 2 | W 1.87 | R 1.29 | K 2.23 | Q 2.31 | D 1.91 | T 2.39 | H 1.81 | P 1.91
V19: R 2.86 | W 2.28 | P 2.03 | M 2.52 | T 1.71 | A 2.53 | L 2.22 | D 2.15 | Y 2.87 | K 1.75 | G 2.66
F24: K 2.34 | L 3.07 | M 2.27 | N 2.18 | Q 2.21 | D 3.3 | I 2.28 | P 2.95 | G 2.19 | C 1.47 | E 1.82 | T 1.98 | H 3.34
M9: A 2.02 | H 2.19 | S 1.43 | D 1.88 | T 1.45 | K 1.95 | Q 1.73
M8: Q 2.26 | P 2.44 | A 1.83 | T 1.54 | I 2.03 | W 1.09 | Y 1.39 | D 2.5 | C 1.38 | N 2.29 | G 2.55 | S 2.02
A23: T 1.6 | Y 2.29 | R 2.36 | E 2.24 | C 2.5 | V 1.71 | N 2.22 | S 2.94 | K 1.31
R13: Y 2.46 | P 2.02 | M 2.28 | H 1.46 | D 1.32 | A 1.73 | F 1.92 | Q 2.45 | W 3.05 | E 2.88 | N 2.74
H15: S 1.88 | Q 1.5 | T 1.92 | A 2.26 | D 1.49 | W 1.94 | R 1.91 | G 4.54 | L 1.78 | F 2.4 | M 1.46 | N 2.81 | I 1.96

Variants of: B2
Experiment: as above
Conditions: c terminus: a fixed tail appended

Protein stability index of substitutions, site by site:
Y5: Q 4.2 | K 4.43 | P 4.32 | H 3.81 | C 3.2 | I 3.31 | F 3.78 | R 3.91 | L 3.31 | M 3.47 | W 3.61 | G 4.49 | A 4.38 | N 4.17 | T 4.45 | V 4.41 | D 4.22 | S 4 | E 4.55
R4: E 3.92 | T 3.98 | N 3.72 | C 3.64 | Q 4.66 | A 3.94 | V 3.89 | I 3.43 | F 3.88 | S 4.05 | L 4.04 | H 3.43 | M 4.07 | P 4.11 | Y 3.79 | W 3.09 | D 4.46 | G 4.12 | K 3.69
R1: N 3.93 | Q 4.23 | F 3.24 | T 4.01 | C 4.07 | H 3.94 | E 4.23 | G 3.85 | L 3.96 | Y 3.29 | I 3.7 | M 3.98 | V 3.59 | K 3.96 | S 3.73 | D 4.33 | W 2.74 | A 3.63 | P 3.8
P2: H 3.61 | G 3.59 | D 3.98 | W 2.14 | S 3.92 | M 3.24 | I 2.5 | A 3.59 | K 3.24 | Y 2.21 | R 4.1 | L 2.99 | Q 3.45 | V 3.5 | F 2.81 | C 2.99 | E 4.12 | N 3.51 | T 3.33
V6: E 3.92 | C 3.63 | D 4.34 | A 3.3
R3: A 3.74 | Y 3.1 | C 3.1 | H 3.83 | S 4.26 | W 2.6 | Q 4.11 | G 3.96 | N 4.07 | P 4.04 | I 4.23 | D 4.28 | E 4.51 | L 2.88 | F 2.21 | M 3.89 | K 4.02 | T 4.3 | V 4.03
